Measured values as given in PMC5170556 (Molecular Biology of the Cell, 2016).
Changes are numbered by the printed parent chain. Each block holds one molecule with its values, some of them ahead of it.

T1: Kar9 (full-length) (S. cerevisiae, UniProt P32526 1-644)
T1 sequence (looked up): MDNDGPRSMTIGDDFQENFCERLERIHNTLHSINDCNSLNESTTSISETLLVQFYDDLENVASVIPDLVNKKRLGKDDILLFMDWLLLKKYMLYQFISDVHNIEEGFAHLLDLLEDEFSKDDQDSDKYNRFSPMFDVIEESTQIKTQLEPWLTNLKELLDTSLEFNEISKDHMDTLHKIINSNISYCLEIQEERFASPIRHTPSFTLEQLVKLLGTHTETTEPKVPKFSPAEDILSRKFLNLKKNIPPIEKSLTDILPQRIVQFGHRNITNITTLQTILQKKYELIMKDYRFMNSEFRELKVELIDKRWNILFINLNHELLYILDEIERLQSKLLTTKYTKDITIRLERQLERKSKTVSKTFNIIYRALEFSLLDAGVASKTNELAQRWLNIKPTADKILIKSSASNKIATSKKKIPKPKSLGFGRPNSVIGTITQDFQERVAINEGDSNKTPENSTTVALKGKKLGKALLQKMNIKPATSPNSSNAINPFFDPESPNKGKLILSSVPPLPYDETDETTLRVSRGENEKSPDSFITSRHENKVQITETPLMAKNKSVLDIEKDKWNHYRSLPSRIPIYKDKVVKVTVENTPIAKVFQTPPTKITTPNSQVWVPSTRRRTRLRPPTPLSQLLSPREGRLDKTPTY

B1: GFP-tagged C-terminal domain of Bim1 (domain or fragment, S. cerevisiae, UniProt P40013 194-344, looked up)
chain: ETIGSLNEEIEQYKGTVSTLEIEREFYFNKLRDIEILVHTTQDLINEGVYKFNDETITGHGNGNGGALLRFVKKVESILYATAEGFEMNDGEDELNDKNLGEHGTVPNQGGYANSNGEVNGNEGSNHDVIMQNDEGEVGVSNNLIIDEETF
B2: Kar9C (residues 429–644) (domain or fragment, S. cerevisiae, UniProt P32526 429-644, looked up)
chain: SVIGTITQDFQERVAINEGDSNKTPENSTTVALKGKKLGKALLQKMNIKPATSPNSSNAINPFFDPESPNKGKLILSSVPPLPYDETDETTLRVSRGENEKSPDSFITSRHENKVQITETPLMAKNKSVLDIEKDKWNHYRSLPSRIPIYKDKVVKVTVENTPIAKVFQTPPTKITTPNSQVWVPSTRRRTRLRPPTPLSQLLSPREGRLDKTPTY
B3: Kar9C-Site2mut (domain or fragment, S. cerevisiae, UniProt P32526 429-644, looked up)
chain: B2 chain with I147N, P148N
B4: C-terminal domain of Bim1 (residues 194–344) (domain or fragment, S. cerevisiae, UniProt P40013 194-344, looked up)
chain: B1 chain
B5: Bim1 (full-length) (natural protein, S. cerevisiae, UniProt P40013 1-344, looked up)
chain: MSAGIGESRTELLTWLNGLLNLNYKKIEECGTGAAYCQIMDSIYGDLPMNRVKFNATAEYEFQTNYKILQSCFSRHGIEKTVYVDKLIRCKFQDNLEFLQWLKKHWIRHKDESVYDPDARRKYRPIITNNSATKPRTVSNPTTAKRSSSTGTGSAMSGGLATRHSSLGINGSRKTSVTQGQLVAIQAELTKSQETIGSLNEEIEQYKGTVSTLEIEREFYFNKLRDIEILVHTTQDLINEGVYKFNDETITGHGNGNGGALLRFVKKVESILYATAEGFEMNDGEDELNDKNLGEHGTVPNQGGYANSNGEVNGNEGSNHDVIMQNDEGEVGVSNNLIIDEETF

Columns and labels:
[1] = target: Kar9N (residues 1–429) (S. cerevisiae) (UniProt P32526); assay: SEC-MALS
[2] = target: Kar9 (full-length) (S. cerevisiae) (UniProt P32526); assay: SEC-MALS
Kar9 (full-length) = target: T1, Kar9 (full-length); assay: fluorescence correlation spectroscopy
[3] = target: B4; assay: ITC
Kar9C (residues 429–644) = target: B2; assay: ITC
Kar9C-Site2mut = target: B3; assay: ITC
SEC-MALS = target: the molecule itself; assay: SEC-MALS

stoichiometry N [1]: 2
Molecule: Kar9N (residues 1–429) (from UniProt P32526 1-429) (domain or fragment)

stoichiometry N [2]: 2
Molecule: Kar9 (full-length) (from UniProt P32526 1-644) (natural protein)

Molecule: B1
Kd (Kar9 (full-length)): 4.5 nM

Molecule: B2
stoichiometry N [3]: 0.48

Molecule: B3
stoichiometry N [3]: 0.74

Molecule: B4
Kd (Kar9C (residues 429–644)): 9.1 nM
Kd (Kar9C-Site2mut): 4700 nM
stoichiometry N (SEC-MALS): 2

Kd [3]: 560 nM
stoichiometry N [3]: 0.99
Molecule: VFQTPPTKITTPNSQVWVPSTRRRTRLRPPTPLSQLLSPREGRLDKTPTY (domain or fragment) [Trx-Kar9-Site3]

Molecule: B5
stoichiometry N (SEC-MALS): 2
